# Laboratory results as given in publication PMC6104738.
# Molecular target: EBOV GP [change] (residues 1-636; strain Makona) (Zaire ebolavirus (EBOV), strain Makona)
# Experiment: negative-stain electron microscopy; purified EBOV GP ΔTM alone
substance,measurement,value
EBOV GP [change] (residues 1-636; strain Makona) (domain or fragment),stoichiometry N,3
